Results from the supplement of paper PMC10126150.
± gives the standard deviation of the averaged measurements.

Test system: ATP
Assay: switch fluorescence ratio, 500 uM ATP over buffer (Cy3 cluster intensity, sum of 5 cycles each) (fold (ratio)); higher = stronger signal-on switching upon ATP binding; sequences stand for … in TCGTCGGCAGCGTCAGATGTGTATAAGAGACAGTTTTTTTTTTTTTTTTTTTTTTTTT…TC
Conditions: aptamer strand: ATP DNA aptamer (quencher-CACCTGGGGGAGTATTGCGGAGGAAGG + anchor), 100 nM annealed; ATP concentration: 500 uM
How it was run: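 Five buffer/ATP imaging cycles were run on Cy3-labelled switching-strand clusters on a modified Illumina MiSeq flow-cell, with NaOH stripping and re-annealing between cycles. In each cycle, clusters annealed to 100 nM quencher-labelled ATP aptamer were imaged in selection buffer, then after 15 min with 500 uM ATP at 22 °C. Per cluster, the fluorescence ratio is summed target-cycle over summed buffer-cycle Cy3 intensity, averaged per switch-domain sequence. Only clusters within 100-1000 RFU were kept.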
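Note: ATP exposure 15 min at 22 °C before imaging.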

| Sequence | switch fluorescence ratio |
| --- | --- |
| CGTCAATTAT | 1.14 ± 0.054 |
| CGTCACATGT | 1.009 ± 0.0048 |
| CGTCACCATG | 1.037 ± 0.0026 |
| CGTCATATTA | 1.008 ± 0.0025 |
| CGTCATCCAT | 0.9881 ± 0.0021 |
| CGTCCACGGA | 0.9936 ± 0.0096 |
| CGTCCAGCGT | 1.2 ± 0.067 |
| CGTCCGAAGG | 1.03 ± 0.041 |
| CGTCCGACTT | 1.2 ± 0.089 |
| CGTCCTGGGG | 1.12 ± 0.048 |
| CGTCGCAGAA | 1.093 ± 0.004 |
| CGTCGCGTAT | 1.03 ± 0.021 |
| CGTCGCTGGG | 1.0111 ± 0.00071 |
| CGTCGCTTTT | 1.022 ± 0.0052 |
| CGTCGGGGGG | 1.008 ± 0.008 |
| CGTCGGGGTG | 1 ± 0.017 |
| CGTCGGTAAG | 1.04 ± 0.027 |
| CGTCTAGAA | 0.963 ± 0.048 |
| CGTCTGATAG | 0.99 ± 0.033 |
| CGTCTGGGGG | 1.01 ± 0.021 |
| CGTGAAAAGA | 0.986 ± 0.033 |
| CGTGAAAGCT | 1.18 ± 0.037 |
| CGTGAAAGTA | 0.996 ± 0.049 |

| Sequence | switch fluorescence ratio |
| --- | --- |
| CGTGAAGCGT | 0.998 ± 0.039 |
| CGTGAAGTCG | 0.954 ± 0.025 |
| CGTGAATTTT | 1 ± 0.037 |
| CGTGAGGATT | 1 ± 0.022 |
| CGTGAGGGTC | 1 ± 0.059 |
| CGTGAGGTGA | 1.01 ± 0.035 |
| CGTGAGTACG | 0.992 ± 0.01 |
| CGTGATATCT | 1.05 ± 0.018 |
| CGTGATTACT | 1.17 ± 0.11 |
| CGTGCACCGG | 1 ± 0.031 |
| CGTGCCCGGA | 1.03 ± 0.032 |
| CGTGCCCGGT | 1.02 ± 0.022 |
| CGTGCCGTGG | 0.995 ± 0.024 |
| CGTGCGGGAA | 1.004 ± 0.0069 |
| CGTGCTCAGG | 1.162 ± 0.011 |
| CGTGCTTTTT | 1.01 ± 0.018 |
| CGTGGAGGTA | 0.985 ± 0.041 |
| CGTGGAGGTG | 1.07 ± 0.036 |
| CGTGGCAGGG | 0.984 ± 0.033 |
| CGTGGGATAT | 1.0053 ± 0.00092 |
| CGTGGGCGTG | 0.9797 ± 0.0013 |
| CGTGGGGAAG | 0.998 ± 0.023 |
| CGTGGGGATC | 1.06 ± 0.022 |

| Sequence | switch fluorescence ratio |
| --- | --- |
| CGTGGGGGAG | 1.02 ± 0.066 |
| CGTGGGGGCT | 1 ± 0.019 |
| CGTGGGGGTG | 0.993 ± 0.029 |
| CGTGGTGGGT | 0.963 ± 0.025 |
| CGTGGTTAGT | 0.964 ± 0.023 |
| CGTGGTTGAG | 0.976 ± 0.018 |
| CGTGTAATGG | 1.042 ± 0.0015 |
| CGTGTATATG | 1.01 ± 0.029 |
| CGTGTATGGG | 1 ± 0.037 |
| CGTGTCAGGG | 1 ± 0.034 |
| CGTGTGGAAA | 1.02 ± 0.018 |
| CGTGTTAACT | 0.992 ± 0.047 |
| CGTGTTAGGG | 1.0062 ± 0.00077 |
| CGTGTTGGAT | 0.997 ± 0.062 |
| CGTGTTGGG | 1 ± 0.028 |
| CGTGTTGGGT | 0.998 ± 0.048 |
| CGTGTTGTAG | 1.02 ± 0.017 |
| CGTGTTGTGG | 0.97 ± 0.067 |
| CGTGTTTGTG | 0.999 ± 0.067 |
| CGTGTTTTTC | 0.996 ± 0.026 |
| CGTTAAGGGT | 0.98 ± 0.031 |
| CGTTAAGTGG | 0.973 ± 0.04 |
| CGTTAATAGC | 1.14 ± 0.019 |

| Sequence | switch fluorescence ratio |
| --- | --- |
| CGTTACGAGC | 1.04 ± 0.059 |
| CGTTACGGGG | 0.9788 ± 0.0055 |
| CGTTACGTGT | 1.026 ± 0.0042 |
| CGTTAGATT | 0.967 ± 0.011 |
| CGTTAGATTG | 0.998 ± 0.051 |
| CGTTAGGGTA | 0.9911 ± 0.003 |
| CGTTAGTAAG | 0.982 ± 0.033 |
| CGTTATCGGA | 1 ± 0.041 |
| CGTTATGCCT | 0.975 ± 0.061 |
| CGTTATTGAA | 0.9834 ± 0.0067 |
| CGTTCAAGTT | 1 ± 0.024 |
| CGTTCAATGG | 1.23 ± 0.05 |
| CGTTCCCGTG | 0.9811 ± 0.0031 |
| CGTTCGACTG | 0.97 ± 0.025 |
| CGTTCTTCGC | 1.07 ± 0.094 |
| CGTTGAGGTT | 0.979 ± 0.026 |
| CGTTGCAGT | 0.986 ± 0.011 |
| CGTTGCGGGG | 0.9751 ± 0.0073 |
| CGTTGCTCCC | 1.3 ± 0.49 |
| CGTTGCTTGG | 1 ± 0.046 |
| CGTTGGGGAG | 1.02 ± 0.03 |
| CGTTGGGGT | 0.986 ± 0.019 |
| CGTTGGGGTT | 1.02 ± 0.036 |

| Sequence | switch fluorescence ratio |
| --- | --- |
| CGTTGGGTCT | 1 ± 0.018 |
| CGTTGGTCGC | 1.01 ± 0.016 |
| CGTTGTATCT | 1 ± 0.035 |
| CGTTGTGGGA | 1.01 ± 0.038 |
| CGTTTAACGT | 0.989 ± 0.047 |
| CGTTTAATAA | 1.008 ± 0.0091 |
| CGTTTACCGA | 0.942 ± 0.034 |
| CGTTTACCTG | 0.983 ± 0.0042 |
| CGTTTAGGGA | 1.004 ± 0.0026 |
| CGTTTAGTCA | 1.01 ± 0.023 |
| CGTTTATGAG | 1.022 ± 0.0067 |
| CGTTTATGGT | 0.967 ± 0.022 |
| CGTTTATGTA | 0.995 ± 0.04 |
| CGTTTATTCA | 1.036 ± 0.0079 |
| CGTTTCACTA | 0.9736 ± 0.0019 |
| CGTTTCAGAT | 1.02 ± 0.02 |
| CGTTTCATGC | 1.05 ± 0.056 |
| CGTTTCGAAT | 0.96 ± 0.027 |
| CGTTTCTTTG | 0.966 ± 0.019 |
| CGTTTGGAGC | 0.968 ± 0.031 |
| CGTTTGGCAG | 1.019 ± 0.0025 |
| CGTTTGGCTT | 1.01 ± 0.008 |
| CGTTTGGTGT | 1.0115 ± 1.5e-05 |

| Sequence | switch fluorescence ratio |
| --- | --- |
| CGTTTGTCAG | 0.965 ± 0.033 |
| CGTTTGTTCC | 1.0348 ± 0.00023 |
| CGTTTTACCG | 1.02 ± 0.032 |
| CGTTTTCTGT | 0.978 ± 0.024 |
| CGTTTTTAGA | 0.967 ± 0.031 |
| CTAAATATAT | 1.03 ± 0.013 |
| CTAAATATTA | 1.031 ± 0.0049 |
| CTAACGGGCT | 0.995 ± 0.058 |
| CTAACGTATA | 1.18 ± 0.036 |
| CTAACTGCAT | 1.18 ± 0.031 |
| CTAACTTATT | 1.01 ± 0.013 |
| CTAAGAAGCG | 1.1 ± 0.17 |
| CTAAGAATAG | 1.02 ± 0.021 |
| CTAAGGGGCT | 1.01 ± 0.015 |
| CTAAGGGGGT | 0.9503 ± 0.0032 |
| CTAAGGTTGG | 0.974 ± 0.034 |
| CTAATAGTT | 1 ± 0.048 |
| CTAATATCTC | 1.016 ± 0.01 |
| CTAATCATAA | 1 ± 0.052 |
| CTAATCTAGC | 1.045 ± 0.0017 |
| CTAATGGACC | 1.01 ± 0.03 |
| CTAATGGCTT | 0.977 ± 0.033 |
| CTAATGGGAG | 0.9726 ± 0.0092 |

| Sequence | switch fluorescence ratio |
| --- | --- |
| CTAATGGGTT | 0.98 ± 0.037 |
| CTAATGTTGT | 1.02 ± 0.028 |
| CTAATTCGAG | 0.9919 ± 0.0026 |
| CTAATTGTAG | 0.9884 ± 0.0029 |
| CTACAATGGA | 1 ± 0.029 |
| CTACATACGG | 1.52 ± 0.02 |
| CTACATGACT | 1.13 ± 0.025 |
| CTACATGTAA | 1.03 ± 0.081 |
| CTACCCTTTG | 1.13 ± 0.038 |
| CTACCGCCTA | 1.39 ± 0.048 |
| CTACGGGATT | 1.33 ± 0.43 |
| CTACTCCGTT | 1.29 ± 0.068 |
| CTACTGAAGG | 0.983 ± 0.014 |
| CTACTTATTT | 1.02 ± 0.024 |
| CTACTTGATA | 0.978 ± 0.017 |
| CTAGATTTGA | 1 ± 0.024 |
| CTAGCATCCG | 1.03 ± 0.016 |
| CTAGGAGGGA | 0.98 ± 0.013 |
| CTAGGATGTG | 0.997 ± 0.031 |
